Article PMC11788743, “Biochemical characterization of the human ubiquitous glucose‐6‐phosphatase in neutrophil granulocytes” (FEBS Open Bio, 2024)

Columns and labels:
[1] = substrate: O=C(O)[C@H](O)[C@@H](O)[C@H](O)[C@H](O)COP(=O)(O)O; experiment: inorganic phosphate release (molybdate), Michaelis-Menten fit, GFP control subtracted; type: biochemical, Homo sapiens; details: 50 mM Mops pH 6.5, 25 mM CaCl2, 0.5 mM MnCl2, 2.5 mM EDTA, 37 °C, alamethicin, apparent, cell lysate
Description: (§1) inorganic phosphate release (molybdate), Michaelis-Menten fit, GFP control subtracted on human recombinant G6PC3 (glucose-6-phosphatase-β)

[2] = substrate: O=P(O)(O)OC[C@@H](O)[C@@H](O)[C@H](O)[C@@H](O)CO; experiment: as above; type: biochemical, Homo sapiens; details: 50 mM Mops pH 6.5, 25 mM CaCl2, 0.5 mM MnCl2, 2.5 mM EDTA, 37 °C, alamethicin, apparent, cell lysate
Description: as §1

B1: human recombinant G6PC3 (glucose-6-phosphatase-β) (Homo sapiens) (protein)
chain: MESTLGAGIVIAEALQNQLAWLENVWLWITFLGDPKILFLFYFPAAYYASRRVGIAVLWISLITEWLNLIFKWFLFGDRPFWWVHESGYYSQAPAQVHQFPSSCETGPGSPSGHCMITGAALWPIMTALSSQVATRARSRWVRVMPSLAYCTFLLAVGLSRIFILAHFPHQVLAGLITGAVLGWLMTPRVPMERELSFYGLTALALMLGTSLIYWTLFTLGLDLSWSISLAFKWCERPEWIHVDSRPFASLSRDSGAALGLGIALHSPCYAQVRRAQLGNGQKIACLVLAMGLLGPLDWLGHPPQISLFYIFNFLKYTLWPCLVLALVPWAVHMFSAQEAPPIHSS
notes: full-length G6PC3 cDNA (universal human cDNA) in pEGFP-N1 (XhoI/EcoRI), GFP-G6PC3 fusion, overexpressed in HEK293T; alamethicin-permeabilized cell lysate
Question: B1 was tested. Which Km [1] did it give?
Answer: 8.22 ± 1.4 mM

Question: What about the Vmax [1] of the same protein?
Answer: 0.19 µmol/min/mg

Question: What about the Km [2] of the same protein?
Answer: 5.11 ± 0.7 mM

Question: And the Vmax [2]?
Answer: 1.66 µmol/min/mg
